Data reported in US20230039157A1.

B1: Factor VIIa (protein)
chain: ANAFLEELRPGSLERECKEEQCSFEEAREIFKDAERTKLFWISYSDGDQCASSPCQNGGSCKDQLQSYICFCLPAFEGRNCETHKDDQLICVNENGGCEQYCSDHTGTKRSCRCHEGYSLLADGVSCTPTVEYPCGKIPILEKRNASKPQGRIVGGKVCPKGECPWQVLLLVNGAQLCGGTLINTIWVVSAAHCFDKIKNWRNLIAVLGEHDLSEHDGDEQSRRVAQVIIPSTYVPGTTNHDIALLRLHQPVVLTDHVVPLCLPERTFSERTLAFVRFSLVSGWGQLLDRGATALELMVLNVPRLMTQDCLQQSRKVGDSPNITEYMFCAGYSDGSKDSCKGDSGGPHATHYRGTWYLTGIVSWGQGCATVGHFGVYTRVSQYIEWLQKLMRSEPRPGVLLRAPFP

Experiments:
[1] = target: IL-2Rβ and common γ chain on 32Dβ cells; assay: cell-based or functional assay
[2] = target: IL-2Rα, IL-2Rβ and common γ chain on CTLL-2 cells; assay: cell-based or functional assay
TF219 = target: T1, TF219
T1 chain: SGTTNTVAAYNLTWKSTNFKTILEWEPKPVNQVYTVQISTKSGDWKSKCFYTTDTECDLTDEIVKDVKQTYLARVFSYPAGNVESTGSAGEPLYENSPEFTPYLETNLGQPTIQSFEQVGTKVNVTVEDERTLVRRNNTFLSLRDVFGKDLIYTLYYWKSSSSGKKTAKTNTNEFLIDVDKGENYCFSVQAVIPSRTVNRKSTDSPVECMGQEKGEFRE

[3] = target: 21t15-TGFRs multi-chain chimeric polypeptide
[4] = target: mouse (m)21t15 multi-chain chimeric polypeptide
[5] = target: 18t15-12s multi-chain chimeric polypeptide
[6] = target: 21t15-7s multi-chain chimeric polypeptide

Molecule | EC50 of 32Dβ cell proliferation (WST1, absorbance at 450 nM) [1] [pM] | EC50 of CTLL-2 cell proliferation (WST1, absorbance at 450 nM) [2] [pM] | FX activation measured by FXa activity (chromogenic substrate S-2765) (TF219) | FX activation measured by FXa activity (chromogenic substrate S-2765) [3] | FX activation measured by FXa activity (chromogenic substrate S-2765) [4] | FX activation measured by FXa activity (chromogenic substrate S-2765) [5] | FX activation measured by FXa activity (chromogenic substrate S-2765) [6]
recombinant IL-2 (from UniProt P60568 21-153) (ligand) | 140 | 548 |  |  |  |  | 
recombinant IL-15 (from UniProt P40933 49-162) (ligand) | 1.6 |  |  |  |  |  | 
B1 |  |  | TF219 and TF219-containing multi-chain chimeric polypeptides had very low FX activation activity | TF219 and TF219-containing multi-chain chimeric polypeptides had very low FX activation activity | TF219 and TF219-containing multi-chain chimeric polypeptides had very low FX activation activity | TF219 and TF219-containing multi-chain chimeric polypeptides had very low FX activation activity | TF219 and TF219-containing multi-chain chimeric polypeptides had very low FX activation activity
